This assay addresses MojV F clamp2 (prefusion Mòjiāng virus fusion glycoprotein ectodomain stabilised with the clamp2 molecular … (Mòjiāng virus)). The experiment in a line: ELISA. The conditions noted are these: both partners purified. A general note: An ELISA detects its analyte on a solid surface through an enzyme-linked reagent.

B1: mAb66 (human IgG1) (antibody, V domains shown)
VH: ETGSGGGLVKPGGTLTLTCKASGFTLSSYWMCWVRQAPGKGLELIACLYTNGATTWYASWVNGRFAISRSTSRNTVDLNMTSLTAADTATYFCARGSGSGWSWFNIWGPGTLVTVSS
VL: TGVMTQTPASVEAAVGGTVTIKCQASQNIISSLAWYQQKPGQRPKLLIYYASTLASGVPSRFKGSGSGTQFTLTISDLECADAATYYCQSYYYSGITYGNAFGGGTEVVVK
Take B1: the binding result is “no binding (tested: 50 μg/mL)”.

B2: 1F5 (human IgG1) (antibody, V domains shown)
VH: DVQLQESGPGLVKPSQSLSLTCSVTGYSITSDYYWNWIRQFPGNKLEWMGYVTYDGSNNYNPSLKNRISITRDSSKNQFFLKLNSVISEDTATYYCARFGSSYWAMDYWGQGTSLTVSS
VL: QIVLTQSPAIMSASLGEAITLTCSASSSVSYMHWYQQKSGTSPKLLIYSTSNLASGVPSRFSGSGSGTFYSLTISSVEAEDAADYYCHQWYSYPWTFGGGTKLEIK
For B2, the binding result was “no binding (tested: 50 μg/mL)”.

B3: 5B3 (human IgG1) (antibody, V domains shown)
VH: EVQLVESGGGLVKPGGSLKLSCAASGFTFSSYDMSWVRQTPEKRLEWVAMISSGGSYSYYPDSVKGRFTISRDNAKNTLYLQMSSLRSEDTAMYYCARQGDYAWFAYWGQGTLVTVSS
VL: DIQMTQSPASQSASLGESVTITCLASQTIGTWLAWYQQKPGKSPQLLIYAATSLADGVPSRFSGSGSGTKFSFKISSLQAEDFVSYYCQQFYSTPFTFGGGTKLEIK
Regarding B3, the binding result was “no binding (tested: 50 μg/mL)”.

B4: 12B2 (human IgG1) (antibody, V domains shown)
VH: QVQLKESGPGLVAPSQSLSITCTVSGFSLASYGVHWVRQPPGKGLEWLGVIWTGGSTNYNSALMSRLSINRDNSKSQVFLKLNSLQTDDTAIYYCARDRGYGYGGFAYWGQGTLVTVSA
VL: DIQMTQSPASLSASVGETVTITCRASENIYSYLAWYQHKQGKSPQLLVYNAKSLAEGVPSRFSGSGSGTQFSLKINSLQPEDFGSYYCQHHYGTPWTFGGGTKLEIK
As to B4, the binding result is on record as “no binding (tested: 50 μg/mL)”.

These data come from publication PMC10275869 (Nature Communications, 2023).
